# B1: TNF receptor-associated factor 6 (Mus musculus), P70196 (parent)
# chain: MSLLNCENSCGSSQSSSDCCAAMAASCSAAVKDDSVSGSASTGNLSSSFMEEIQGYDVEFDPPLESKYECPICLMALREAVQTPCGHRFCKACIIKSIRDAGHKCPVDNEILLENQLFPDNFAKREILSLTVKCPNKGCLQKMELRHLEDHQVHCEFALVNCPQCQRPFQKCQVNTHIIEDCPRRQVSCVNCAVSMAYEEKEIHDQSCPLANIICEYCGTILIREQMPNHYDLDCPTAPIPCTFSVFGCHEKMQRNHLARHLQENTQLHMRLLAQAVHNVNLALRPCDAASPSRGCRPEDPNYEETIKQLESRLVRQDHQIRELTAKMETQSMYVGELKRTIRTLEDKVAEMEAQQCNGIYIWKIGNFGMHLKSQEEERPVVIHSPGFYTGRPGYKLCMRLHLQLPTAQRCANYISLFVHTMQGEYDSHLPWPFQGTIRLTILDQSEALIRQNHEEVMDAKPELLAFQRPTIPRNPKGFGYVTFMHLEALRQGTFIKDDTLLVRCEVSTRFDMGGLRKEGFQPRSTDAGV
# Variants of: B1
# Conditions: with ern1_mouse Ern1, Q9EQY0
# Chain of ern1_mouse Ern1, Q9EQY0 (Q9EQY0 whole entry): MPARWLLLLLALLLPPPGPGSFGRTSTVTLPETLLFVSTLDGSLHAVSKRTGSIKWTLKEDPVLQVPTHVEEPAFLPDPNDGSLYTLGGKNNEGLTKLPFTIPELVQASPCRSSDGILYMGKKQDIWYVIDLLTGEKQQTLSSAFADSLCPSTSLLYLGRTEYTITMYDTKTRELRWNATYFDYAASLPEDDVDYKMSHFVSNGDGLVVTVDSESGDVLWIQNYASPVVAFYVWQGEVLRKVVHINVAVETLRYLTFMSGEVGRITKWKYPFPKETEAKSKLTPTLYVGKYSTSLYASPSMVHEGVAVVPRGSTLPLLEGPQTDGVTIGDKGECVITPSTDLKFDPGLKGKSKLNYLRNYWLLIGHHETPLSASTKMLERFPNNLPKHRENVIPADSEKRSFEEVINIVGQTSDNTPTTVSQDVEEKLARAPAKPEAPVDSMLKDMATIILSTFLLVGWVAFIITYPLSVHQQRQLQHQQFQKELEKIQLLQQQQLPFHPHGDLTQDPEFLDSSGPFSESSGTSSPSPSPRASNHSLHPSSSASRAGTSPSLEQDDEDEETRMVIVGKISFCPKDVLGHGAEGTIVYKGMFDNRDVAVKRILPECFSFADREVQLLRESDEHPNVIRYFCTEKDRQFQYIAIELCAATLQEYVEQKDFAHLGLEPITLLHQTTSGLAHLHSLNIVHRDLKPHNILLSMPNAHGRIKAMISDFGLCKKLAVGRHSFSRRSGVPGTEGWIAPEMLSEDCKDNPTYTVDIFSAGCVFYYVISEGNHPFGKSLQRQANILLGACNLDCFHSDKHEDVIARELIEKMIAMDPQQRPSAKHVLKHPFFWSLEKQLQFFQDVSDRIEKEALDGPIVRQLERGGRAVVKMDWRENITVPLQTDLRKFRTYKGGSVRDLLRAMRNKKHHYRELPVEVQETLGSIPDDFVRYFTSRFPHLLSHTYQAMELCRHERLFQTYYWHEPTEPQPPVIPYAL
row,effect of a mutation on the interaction,Variant
1,increasing interaction,MSLLNCENSCGSSQSSSDCCAAMAASCSAAVKDDSVSGSASTGNLSSSFMEEIQGYDVEFDPPLESKYEAPICLMALREAVQTPCGHRFCKACIIKSIRDAGHKCPVDNEILLENQLFPDNFAKREILSLTVKCPNKGCLQKMELRHLEDHQVHCEFALVNCPQCQRPFQKCQVNTHIIEDCPRRQVSCVNCAVSMAYEEKEIHDQSCPLANIICEYCGTILIREQMPNHYDLDCPTAPIPCTFSVFGCHEKMQRNHLARHLQENTQLHMRLLAQAVHNVNLALRPCDAASPSRGCRPEDPNYEETIKQLESRLVRQDHQIRELTAKMETQSMYVGELKRTIRTLEDKVAEMEAQQCNGIYIWKIGNFGMHLKSQEEERPVVIHSPGFYTGRPGYKLCMRLHLQLPTAQRCANYISLFVHTMQGEYDSHLPWPFQGTIRLTILDQSEALIRQNHEEVMDAKPELLAFQRPTIPRNPKGFGYVTFMHLEALRQGTFIKDDTLLVRCEVSTRFDMGGLRKEGFQPRSTDAGV [C70A]

# From IntAct's records for PubMed 23942232
